Experimental data published in publication PMC8560851 (Scientific Reports, 2021).
Changes are numbered by the printed parent chain.

T1: VEGF antigen as co-crystallised with the bH1-Fab H3 variants (Homo sapiens, VEGF-A residues 1-110 of …)
T1 construct: VEGF-A, human
T1 chain: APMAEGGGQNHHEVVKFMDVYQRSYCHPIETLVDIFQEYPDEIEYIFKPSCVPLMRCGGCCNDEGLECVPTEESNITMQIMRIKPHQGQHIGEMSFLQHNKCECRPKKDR

B1: bH1 Fab H3 variant 14_0130 (Fab, V domains shown)
VH: EVQLVESGGGLVQPGGSLRLSCAASGFNIKDTYIHWVRQAPGKGLEWVARIYPTNGYTRYADSVKGRFTISADTSKNTAYLQMNSLRAEDTAVYYCAKLGIGYYYYGMDVWGQGTLVTVSS
VL: DIQMTQSPSSLSASVGDRVTITCRASQDIPRSISGYVAWYQQKPGKAPKLLIYWGSYLYSGVPSRFSGSGSGTDFTLTISSLQPEDFATYYCQQHYTTPPTFGQGTKVEIK
notes: also in PDB 7KF1; also called design 14_0130; source: CHO-3E7, co-transfected, purified from supernatant (HisTrap IMAC, SEC Superdex-200)
B2: bH1 Fab H3 variant 16_0325 (Fab, V domains shown)
VH: EVQLVESGGGLVQPGGSLRLSCAASGFNIKDTYIHWVRQAPGKGLEWVARIYPTNGYTRYADSVKGRFTISADTSKNTAYLQMNSLRAEDTAVYYCARGGAVAGTGVYYFDYWGQGTLVTVSS
VL: B1 VL
notes: also in PDB 7KEZ; also called design 16_0325; source: CHO-3E7, co-transfected, purified from supernatant (HisTrap IMAC, SEC Superdex-200)
B3: bH1 Fab H3 variant 13_0346 (Fab, V domains shown)
VH: EVQLVESGGGLVQPGGSLRLSCAASGFNIKDTYIHWVRQAPGKGLEWVARIYPTNGYTRYADSVKGRFTISADTSKNTAYLQMNSLRAEDTAVYYCARGGSFYYYYMDVWGQGTLVTVSS
VL: B1 VL
notes: also in PDB 7KF0; also called design 13_0346; source: CHO-3E7, co-transfected, purified from supernatant (HisTrap IMAC, SEC Superdex-200)
B4: bH1 Fab H3 variant 12_0327 (Fab, V domains shown)
VH: EVQLVESGGGLVQPGGSLRLSCAASGFNIKDTYIHWVRQAPGKGLEWVARIYPTNGYTRYADSVKGRFTISADTSKNTAYLQMNSLRAEDTAVYYCARGRKYSSSFDYWGQGTLVTVSS
VL: B1 VL
notes: also in PDB 7KF2; also called design 12_0327; source: CHO-3E7, co-transfected, purified from supernatant (HisTrap IMAC, SEC Superdex-200)
B5: bH1 Fab H3 variant 14_0480 (Fab, V domains shown)
VH: EVQLVESGGGLVQPGGSLRLSCAASGFNIKDTYIHWVRQAPGKGLEWVARIYPTNGYTRYADSVKGRFTISADTSKNTAYLQMNSLRAEDTAVYYCARGLERSGNYYLDYWGQGTLVTVSS
VL: B1 VL
notes: source: CHO-3E7, co-transfected, purified from supernatant (HisTrap IMAC, SEC Superdex-200)
B6: bH1 Fab H3 variant 14_0905 (Fab, V domains shown)
VH: B1 VH with A97V, K98R, L99G, I101Y, G102L, Y103R, Y104D
VL: B1 VL
notes: as for B5
B7: bH1 Fab H3 variant 14_0472 (Fab, V domains shown)
VH: B5 VH with L100I, E101A, R102V, S103A, N105A, L108F
VL: B1 VL
notes: as for B5
B8: bH1 Fab H3 variant 14_0622 (Fab, V domains shown)
VH: B5 VH with G99N, L100G, E101G, R102D, G104Y, N105S, Y106G, L108F, D109Q, Y110H
VL: B1 VL
notes: as for B5
B9: bH1 Fab H3 variant 14_0688 (Fab, V domains shown)
VH: B5 VH with G99S, L100G, E101R, R102D, S103A, G104Y, L108F, Y110S
VL: B1 VL
notes: as for B5
B10: bH1 Fab H3 variant 14_0822 (Fab, V domains shown)
VH: B5 VH with A97G, G99S, L100G, E101P, S103L, N105M, L108F, Y110F
VL: B1 VL
notes: as for B5
B11: bH1 Fab H3 variant 14_0129 (Fab, V domains shown)
VH: B1 VH with I101G, G102Q, Y103G, Y104S, G107H, M108F, V110Y
VL: B1 VL
notes: as for B5
B12: parental bH1 Fab (Fab, V domains shown)
VH: not shown
VL: B1 VL
notes: heavy chain of the bH1 Fab; light chain of the bH1 Fab; also called bH1 antibody; parental antibody; source: CHO-3E7, co-transfected, purified from supernatant (HisTrap IMAC, SEC Superdex-200)
B13: bH1 Fab H3 variant 14_0490 (Fab, V domains shown)
VH: B1 VH with K98R, L99G, G100N, I101E, G102A, Y103G
VL: B1 VL
notes: as for B5
B14: bH1 Fab H3 variant 16_0102 (Fab, V domains shown)
VH: EVQLVESGGGLVQPGGSLRLSCAASGFNIKDTYIHWVRQAPGKGLEWVARIYPTNGYTRYADSVKGRFTISADTSKNTAYLQMNSLRAEDTAVYYCAKGWEGTTVTLTPVDYWGQGTLVTVSS
VL: B1 VL
notes: as for B5
B15: bH1 Fab H3 variant 15_0485 (Fab, V domains shown)
VH: EVQLVESGGGLVQPGGSLRLSCAASGFNIKDTYIHWVRQAPGKGLEWVARIYPTNGYTRYADSVKGRFTISADTSKNTAYLQMNSLRAEDTAVYYCARHGVRGYYYYYMDVWGQGTLVTVSS
VL: B1 VL
notes: as for B5
B16: bH1 Fab H3 variant 16_0460 (Fab, V domains shown)
VH: B2 VH with G99P, G100S, A101G, V102G, A103S, G104R, T105S, G106W, V107L
VL: B1 VL
notes: also called design 16_0460; source: CHO-3E7, co-transfected, purified from supernatant (HisTrap IMAC, SEC Superdex-200)

Target: T1, VEGF antigen as co-crystallised with …
Assay: crystal structure; co-crystallization of bH1-Fab H3 variants with the VEGF antigen and X-ray diffraction; methods in Shi et al. (in preparation)
Settings: both partners purified

Row | binding result | Binder
1 | binds | B1
2 | binds | B2
3 | binds | B3
4 | binds | B4

These binders were tested against T2, Full-length isoform 165 of human VEGF-A (Homo sapiens, VEGF-A isoform 165, UniProt P15692-4) (assay: SPR; Biacore T200, 25 °C, PBS with 0.05% Tween 20 and 3.4 mM EDTA; VEGF-A amine-coupled to a CM-5 chip; Fab injected in single cycle kinetics with five increasing concentrations; double referenced; fit to a 1:1 Langmuir binding model). Settings: both partners purified.
T2 construct: VEGF-A isoform 165, human; Immobilised by amine coupling for SPR; Made in HEK cells, so probably the secreted 165-residue form without signal peptide (surmise); source: HEK, recombinant, purified
T2 sequence (P15692 other isoform, or with tags, fused parts or gaps): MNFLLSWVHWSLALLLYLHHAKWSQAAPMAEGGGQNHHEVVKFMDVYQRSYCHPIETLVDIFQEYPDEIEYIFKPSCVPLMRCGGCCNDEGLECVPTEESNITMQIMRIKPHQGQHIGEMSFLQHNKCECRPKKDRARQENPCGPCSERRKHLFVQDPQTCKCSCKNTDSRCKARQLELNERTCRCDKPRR

Row | Kd [µM] | binding result | Binder
5 | 2.8 |  | B1
6 | 2.72 |  | B5
7 | 0.08 |  | B3
8 | 5 |  | B6
9 | 59 |  | B7
10 | 4.97 |  | B8
11 | 1.6 |  | B4
12 | 3.6 |  | B9
13 | > 50 | no binding (tested: > 50,000 nM) | B10
14 | 3.48 |  | B11
15 | 0.1 |  | B12
16 | 3.59 |  | B13
17 | 50 |  | B14
18 | 0.31 |  | B15
19 | 4.5 |  | B16
